Changes are numbered by the printed parent chain. In names and notes the source's numbering stands.
Biological target: the molecule itself
Experiment: cryo-EM structure; detergent-purified protein (6 mg/mL) incubated with 100 μM CPIII, 2 mM MgCl2, 2 mM ATP and 2 mM sodium orthovanadate for 30 min at 22 °C; single-particle analysis

B1: core region of human ABCB6 (residues 206-842, without TMD0) (domain or fragment, UniProt Q9NP58 206-842, looked up)
chain: APGLRPQSYTLQVHEEDQDVERSQVRSAAQQSTWRDFGRKLRLLSGYLWPRGSPALQLVVLICLGLMGLERALNVLVPIFYRNIVNLLTEKAPWNSLAWTVTSYVFLKFLQGGGTGSTGFVSNLRTFLWIRVQQFTSRRVELLIFSHLHELSLRWHLGRRTGEVLRIADRGTSSVTGLLSYLVFNVIPTLADIIIGIIYFSMFFNAWFGLIVFLCMSLYLTLTIVVTEWRTKFRRAMNTQENATRARAVDSLLNFETVKYYNAESYEVERYREAIIKYQGLEWKSSASLVLLNQTQNLVIGLGLLAGSLLCAYFVTEQKLQVGDYVLFGTYIIQLYMPLNWFGTYYRMIQTNFIDMENMFDLLKEETEVKDLPGAGPLRFQKGRIEFENVHFSYADGRETLQDVSFTVMPGQTLALVGPSGAGKSTILRLLFRFYDISSGCIRIDGQDISQVTQASLRSHIGVVPQDTVLFNDTIADNIRYGRVTAGNDEVEAAAQAAGIHDAIMAFPEGYRTQVGERGLKLSGGEKQRVAIARTILKAPGIILLDEATSALDTSNERAIQASLAKVCANRTTIVVAHRLSTVVNADQILVIKDGCIVERGRHEALLSRGGVYADMWQLQQGQEETSEDTKPQTMER
notes: Homodimer in the cryo-EM maps; also called hABCB6^core; ABCB6^core; not shown: eGFP, C-terminal, cleaved; 10×His, C-terminal, cleaved
binding result: binds

B2: hABCB6^core-W546A mutant (domain or fragment, human, UniProt Q9NP58 206-842, looked up)
chain: B1 chain with W341A
notes: Homodimer in the cryo-EM structures; Used in detergent micelles and in nanodiscs (porcine brain polar lipids, hApoA-I (Δ1-43) scaffold); source: also reconstituted into nanodiscs; not shown: eGFP, C-terminal, cleaved; 10×His, C-terminal, cleaved
stoichiometry N: 2

Source: publication PMC10514269, “W546 stacking disruption traps the human porphyrin transporter ABCB6 in an outward-facing transient state” (Communications Biology, 2023)
